Reference: the supplement of paper PMC10126150
± gives the standard deviation of the averaged measurements.

These sequences were tested on ATP (assay: switch fluorescence ratio, 500 uM ATP over buffer (Cy3 cluster intensity, sum of 5 cycles each) (fold (ratio)); higher = stronger signal-on switching upon ATP binding; sequences stand for … in TCGTCGGCAGCGTCAGATGTGTATAAGAGACAGTTTTTTTTTTTTTTTTTTTTTTTTT…TC). Conditions: aptamer strand: ATP DNA aptamer (quencher-CACCTGGGGGAGTATTGCGGAGGAAGG + anchor), 100 nM annealed; ATP concentration: 500 uM.
Method in brief: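 Switching-strand clusters labelled with Cy3 on a modified Illumina MiSeq flow-cell were annealed to 100 nM quencher-labelled ATP aptamer, imaged in selection buffer, and re-imaged after 15 min with 500 uM ATP at 22 °C. This was done over five cycles with NaOH stripping and re-annealing in between. The fluorescence ratio is summed target-cycle over summed buffer-cycle Cy3 intensity per cluster, averaged per switch-domain sequence, excluding clusters outside 100-1000 RFU.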
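Also: ATP exposure 15 min at 22 °C before imaging.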

Row | Sequence | switch fluorescence ratio
1 | CACGTATCGG | 1.07 ± 0.029
2 | ACAGTTTTCT | 1.01 ± 0.024
3 | AAATTGGGCG | 0.983 ± 0.021
4 | TGCACGTTGC | 1.02 ± 0.03
5 | AATAGGGGAA | 1.01 ± 0.042
6 | TCTATGGTGA | 1.0391 ± 0.00096
7 | TTATAGGTTG | 0.984 ± 0.02
8 | AGAAAATTTT | 1.03 ± 0.031
9 | TTCTGGTCTA | 0.986 ± 0.011
10 | ACTCGTTGTC | 1.02 ± 0.035
11 | ACGTGCGGGC | 1.05 ± 0.013
12 | GATCCACGGT | 1.03 ± 0.027
13 | GAGGAGGGTA | 0.966 ± 0.086
14 | AGTAAAAAGG | 0.993 ± 0.021
15 | AGTGGGATTA | 1.01 ± 0.021
16 | AAGGCTTCTT | 1 ± 0.015
17 | CAGATGATAT | 0.992 ± 0.047
18 | CGGGGAAGGC | 1.13 ± 0.065
19 | GGGGGCGCGT | 1.02 ± 0.038
20 | TATTTTGAGT | 0.989 ± 0.012
21 | AGTCCTCGGC | 1.13 ± 0.071
22 | TTGACTGGG | 0.991 ± 0.023
23 | TGCGTGAAGT | 1.041 ± 0.0091
24 | TCTATGGGGG | 0.986 ± 0.019
25 | CACGAGAAGG | 1.03 ± 0.018

Row | Sequence | switch fluorescence ratio
26 | ATTGAACGGA | 1 ± 0.059
27 | GCGTGCTGTA | 1.013 ± 0.006
28 | ACTAGTTGTC | 0.991 ± 0.033
29 | CAGGGTACGC | 1.04 ± 0.016
30 | AGGCCTCAGA | 0.973 ± 0.015
31 | GGGGGGGACA | 0.984 ± 0.031
32 | TGGGTGGTGC | 0.965 ± 0.011
33 | AGTTCAAGCT | 1.02 ± 0.007
34 | GGGTTGGTGG | 0.992 ± 0.029
35 | TCGTTTGCGT | 0.984 ± 0.032
36 | TTGCTAGGGA | 1.01 ± 0.055
37 | ATGACACGGA | 1.04 ± 0.01
38 | GGATTTTTGT | 0.997 ± 0.022
39 | CGCCAGCAGA | 1.33 ± 0.14
40 | ACGGGTTGGG | 1.02 ± 0.017
41 | AATCTGGGCG | 0.985 ± 0.016
42 | GATGGGTATG | 0.995 ± 0.01
43 | GTTTGAACGG | 0.993 ± 0.018
44 | GGGAAAGTGG | 1.012 ± 0.008
45 | AATATGTGAG | 0.995 ± 0.028
46 | ACGGTGGGGG | 1.01 ± 0.025
47 | GTGCGCAGAA | 0.988 ± 0.015
48 | TCTGCTTGAG | 1.03 ± 0.022
49 | TTAAAATTAA | 0.975 ± 0.021
50 | GGTGTGTTAA | 0.996 ± 0.042

Row | Sequence | switch fluorescence ratio
51 | GGAAAAAGGC | 0.9838 ± 0.0058
52 | TTTGTGAGGT | 1.01 ± 0.034
53 | GTTTTCAATT | 0.983 ± 0.01
54 | TACATTAATA | 1.054 ± 0.0049
55 | CGGCCGGACT | 1.01 ± 0.047
56 | AGGATTGGTG | 0.999 ± 0.052
57 | GTCTGTGGGA | 0.9998 ± 0.0091
58 | GATATTATTT | 0.998 ± 0.024
59 | TTTTTTAAGG | 1 ± 0.034
60 | AAGTTGTGAA | 1.01 ± 0.017
61 | TTAGTGGACT | 1.02 ± 0.016
62 | CCTGGAAGCG | 1.08 ± 0.045
63 | AAATGTTCTT | 0.986 ± 0.031
64 | CGAGGGAGTT | 0.986 ± 0.044
65 | GAATATGTAG | 0.965 ± 0.044
66 | TGGCGGGGGC | 1.02 ± 0.011
67 | GCCGTTGGAA | 1.01 ± 0.024
68 | CATGTTTTTC | 0.982 ± 0.033
69 | GTTGAGCTGG | 0.971 ± 0.019
70 | TTTTTATTGT | 0.997 ± 0.035
71 | AGAGGGATTA | 0.999 ± 0.037
72 | CTCGGGCATT | 1.23 ± 0.052
73 | TTTCGAGTCA | 1 ± 0.03
74 | TGGGGGTTTT | 1 ± 0.032
75 | TGCGTAGTTA | 0.987 ± 0.012

Row | Sequence | switch fluorescence ratio
76 | GCAGTGTGCT | 0.982 ± 0.031
77 | TAAGTGAAAA | 0.995 ± 0.0094
78 | GCGGTTGTGC | 0.935 ± 0.051
79 | CCAGGAACTC | 1.02 ± 0.025
80 | TAGCGGGGCA | 0.996 ± 0.046
81 | AGGTTGTAAT | 1 ± 0.016
82 | GGAGGGGGAT | 1.03 ± 0.043
83 | CTTTAATTCG | 1 ± 0.028
84 | ATGCATGATT | 0.9822 ± 0.0051
85 | TGAGATTAGT | 1.01 ± 0.026
86 | AATTTGCTAA | 0.981 ± 0.013
87 | TGACGGGCAG | 1.07 ± 0.015
88 | ATGTGCGTAG | 1.01 ± 0.017
89 | AGGGCTGAGC | 0.996 ± 0.052
90 | GTGTGAAAAC | 1.02 ± 0.02
91 | AAAATTGTTG | 0.988 ± 0.049
92 | ACTATTTGCA | 1.019 ± 0.0057
93 | TGCCTTGCTT | 1.01 ± 0.023
94 | CGCTATTTCT | 1.1 ± 0.051
95 | CGCTGTGGCG | 0.983 ± 0.036
96 | CGAGGGGGTT | 1 ± 0.02
97 | CGTATGAAGC | 0.972 ± 0.02
98 | CGAAACTTGA | 1.02 ± 0.038
99 | GGAAATAAAA | 1.22 ± 0.24
100 | AGCTAGAGCT | 0.963 ± 0.033

Row | Sequence | switch fluorescence ratio
101 | TGAGTTAGAG | 1.02 ± 0.026
102 | GCTTGCGATG | 1.01 ± 0.011
103 | CTAATTTTTC | 0.9878 ± 0.0026
104 | CATCTAGCAC | 2.63 ± 0.42
105 | ATTCTTTACA | 1.06 ± 0.014
106 | AGTACGGTAA | 1.13 ± 0.025
107 | GGGTGGTAGG | 1 ± 0.028
108 | TGAGGGGTTT | 0.992 ± 0.015
109 | TTCTTTATAT | 0.9721 ± 0.005
110 | GAGAATTGAA | 0.99 ± 0.014
111 | GCTTTTCGTA | 0.9995 ± 0.0064
112 | TTGGGGTT | 0.9662 ± 0.0019
113 | ACACGTCTGG | 1.01 ± 0.029
114 | TAAGGTATTA | 0.972 ± 0.019
115 | TAGATCATGT | 1.016 ± 0.0026
116 | TTGCTCAACT | 1 ± 0.026
117 | CGGGTGTGTG | 0.981 ± 0.019
118 | CTCTATTGTG | 0.964 ± 0.027
119 | ATCACTGATT | 1.057 ± 0.0085
120 | TAAAACGGGG | 1.02 ± 0.074
121 | TCTGTGGCAA | 1.18 ± 0.28
122 | CACGGAGGAG | 1.05 ± 0.055
123 | TTATCTTACA | 0.996 ± 0.059
124 | GATGATGGCG | 1.05 ± 0.073
125 | CTCTAGCTTT | 1.09 ± 0.075

Row | Sequence | switch fluorescence ratio
126 | GTGAGATATT | 0.989 ± 0.043
127 | CGCTTCTCTT | 1.03 ± 0.011
128 | CGTTGGGAGG | 0.979 ± 0.016
129 | ACTATGGGGG | 0.995 ± 0.036
130 | GTTTTTGTTA | 0.991 ± 0.036
131 | AGTGAGGGAA | 0.9787 ± 0.003
132 | GGATATCGTT | 1.032 ± 0.0059
133 | GGGTTCTATG | 1.004 ± 0.0042
134 | ATCGAATTGG | 0.998 ± 0.026
135 | CAGGGGTGCG | 0.991 ± 0.013
136 | TTTCTATGTA | 1.01 ± 0.024
137 | TGCTAGAAGT | 0.9792 ± 0.003
138 | TTCTCCGGTT | 1.31 ± 0.29
139 | TTTGTATGAG | 1.03 ± 0.025
140 | GTTTCTGGAG | 1.03 ± 0.013
141 | TGCGGGGTCA | 1.02 ± 0.034
142 | CAGTTGAGGT | 0.998 ± 0.013
143 | AGGGAAATGG | 0.979 ± 0.034
144 | ACGTATGATA | 1.16 ± 0.056
145 | CGGGCGCACT | 1.06 ± 0.037
146 | AAAAGTTTTT | 0.997 ± 0.025
147 | ATGTTTTTAC | 0.949 ± 0.029
148 | ACGATTAGAC | 1.12 ± 0.029
149 | TAGGTAGCTT | 1.02 ± 0.021
150 | CCTTGTACTG | 1.07 ± 0.042

Row | Sequence | switch fluorescence ratio
151 | TACAAGCTGT | 1.01 ± 0.014
152 | AAATGGGGAA | 1.004 ± 0.0069
153 | GAACGTCCAG | 0.99 ± 0.027
154 | TTGGGGTATG | 1.01 ± 0.012
155 | GCACTGTGGC | 0.992 ± 0.032
156 | AAGCCGGGCT | 1.02 ± 0.029
157 | AAGGCGAGAC | 1.06 ± 0.023
158 | CATGTGAAGC | 1.014 ± 0.0072
159 | ACATTGGCGG | 0.993 ± 0.066
160 | GTGGTCGCTG | 0.982 ± 0.019
161 | TTCAGATTGC | 0.987 ± 0.044
162 | TACTGATTTG | 1.02 ± 0.017
163 | CTGGTACGAC | 1.13 ± 0.016
164 | TCAGCGTGGG | 1.04 ± 0.054
165 | TTTTCATTGT | 1.02 ± 0.036
166 | TTGTTCGGTA | 1.02 ± 0.016
167 | CTGGATGACA | 0.986 ± 0.092
168 | AGAGGGAGAT | 0.9876 ± 0.0098
169 | GTTCGGAGTG | 0.9877 ± 0.0086
170 | GTTTGATGCG | 0.995 ± 0.022
171 | GAATGGTATA | 0.9925 ± 0.0035
172 | CCCTAGGATT | 1.01 ± 0.03
173 | TTTTTCAGGT | 0.997 ± 0.015
174 | TAGGGCAAGT | 1.01 ± 0.016
175 | TCTGGGGGGA | 1.01 ± 0.019

Row | Sequence | switch fluorescence ratio
176 | CGGGATAGTA | 0.994 ± 0.041
177 | GTTTTAGGAG | 0.995 ± 0.043
178 | GATTTATTTA | 0.993 ± 0.015
179 | GGGGGGTTGC | 0.967 ± 0.035
180 | GTGCTTTTTT | 0.993 ± 0.013
181 | AAAGTGTGCT | 1.01 ± 0.024
182 | CACTACGACT | 1.084 ± 0.0034
183 | TGGTTGAACC | 1.03 ± 0.024
184 | TATCCAGGGA | 1.026 ± 0.0046
185 | GCTAATGGTC | 0.977 ± 0.085
186 | TAGGGTGAGT | 1.02 ± 0.035
187 | AGAAAGCGCG | 1.05 ± 0.019
188 | AAGTATAGCA | 1.03 ± 0.014
189 | CAGATAATAT | 1.04 ± 0.022
190 | GAGCTAAGGA | 0.981 ± 0.029
191 | ATCCCGTAGG | 0.9905 ± 0.0084
192 | CTGGCTTGAC | 0.983 ± 0.0052
193 | ACTTGTGGCT | 1.01 ± 0.018
194 | GGTTACTTGG | 0.9885 ± 0.0097
195 | TGCGGCTGGG | 0.978 ± 0.019
196 | CCACTGTGGT | 0.978 ± 0.013
197 | AGTCTGAAGG | 0.995 ± 0.014
198 | GCCGTCGGCA | 1 ± 0.017
199 | TGTCGGTGGG | 0.992 ± 0.016
200 | GCTGAGGTGA | 1.02 ± 0.042
